# From the DeepSol protein solubility set
# Assay: soluble on expression in E. coli; label from the status in PepcDB or PDB records
row,Sequence,soluble on expression in E. coli
1,MDTVNNYRVLEHKAAGHDGTLTDGDGLLIFKPAFPQELEFYKAIQVRDVSRRKSSADGDAPLCSWMPTYLGVLNEGAKIEQSGDAALLKIDERLSDSTDNLDSIPVKSEKSKQYLVLENLLYGFSKPNILDIKLGKTLYDSKASLEKRERMKRVSETTTSGSLGFRICGMKIQKNPSVLNQLSLEYYEEEADSDYIFINKLYGRSRTDQNVSDAIELYFNNPHLSDARKHQLKKTFLKRLQLFYNTMLEEEVRMISSSLLFIYEGDPERWELLNDVDKLMRDDFIDDDDDDDDNDDDDDDDAEGSSEGPKDKKTTGSLSSMSLIDFAHSEITPGKGYDENVIEGVETLLDIFMKFLEHHHHHH,soluble
2,MQNMLSMHFFSVMASLNAMASMRVIVFLYQLSILGDCSTIDSLRDLMISQIVLAYNCISVHVNMYISTNGSEASIASRMSTLESCLFLITMNKGSASFGKRRFFYRDLA,soluble
3,MGSDKIHHHHHHMTARHSDCVHCLMRGQSIFAGLSREEVCELGMDVQDIHVPAGTTIYHEGDPAQYAYTLRQGGIKLVKSLPNGHAQIVRLLHHGDLLGFEGLRTDRHRHSAITLTGTDLCRLELRALDALSQRLPAVREAIFARWQQALQEAEDRIVELGAKKADARLATFLCQWVGAYPQQRAAPFPLTRQDLGEFLGLSTEHVSRIMADLKRHRLLHEHKGQIEIPDPQNLFLYASSDGTRA,not soluble
4,SEAMFCDFPKINHGILYDEEKYKPFSQVPTGEVFYYSCEYNFVSPSKSFWTRITCAEEGWSPTPKCLRLCFFPFVENGHSESSGQTHLEGDTVQIICNTGYRLQNNENNISCVERGWSTPPKCRSTISAEKCGPPPPIDNGDITSFLLSVYAPGSSVEYQCQNLYQLEGNNQITCRNGQWSEPPKCLDPCVISQEIMEKYNIKLKWTNQQKLYSRTGDIVEFVCKSGYHPTKSHSFRAMCQNGKLVYPSCEEK,soluble
5,DPSEPGHADHLTAVMADAQPAIVLTNNASAAAVRRFFSALPGAQRPRIISIDSLPDTLAQSYQIPTPSMAAAAINPVDLPAFLQYTSGSTRTPAGVVLTNRSIVTNVLQIFAAAQLKTPLRLVSWLPL,not soluble
6,KGKDDAGEKPDEPADPCGLALQVQAQGTLEQLEAELTGAGQGLALEARAGLLPQAPFPLRTASLKLTREDKSSLAATLDWQPQPGQPGRDRVVATFEAERLDLQRLAGEAIPPAMLSARGGLDAEVDDLSSLHRATLTLDVTKGSSWNRHPLAGKVAASVSALGDPPGAFATAAPAQPHALPGGLWVDQLDVDLQLGPNRVRAQGKLDERAGALKLDAQAPRLDAFWPGIPGAASVKAALDGALARHRGRIEAAYTPADARARVLGRARAQAQLEFSGGWGAGPAAEGAAAGWRGSVSRLTADSAGFALALERPVTLAYVPEALAPQWQWQVGATTLALTFPDKQRVALAHAASRGGAGRWETAGRADALVITAAMVRQILVALDPEAVARAERDSGSPVNAPVPAAQRRISLDASWDLKFAGALAGKVRVARRDGDLRIPGDPPIPLGLRTLVLEANATPTGGQASRLDARLDMATARMGAINGTASATLGGLALDPRQPIRVALDADVTDLAWLGLFVGDTLEVGGMLKANVRAQGSLDGKWNASGTVNGDKLRVVRIDDGVRLIDGMLRARLQDDRVILDSLRFPASLRVMPAEWRTREWVSTNPDAKGGYLEATGQWELSAARGQVRLQLHRFPALQRSDRYGMVSGVVTLDAALPRISINGDITADAGWVSLEILQGVPTLDDDVKVVRAGQKNAQGDGPPLQIDMNLKVDMGPRFYITGMGLDAGLLGSIQIRLQEGRLTGYGALRTRGGGIEAYGQKLRLRRGTLTFQGRLDNPLLDIEALRTGEQVEAGVRVAGTAQRPRIDLVSYPDVSDVEKLSWLVLGRGPDASGGDTALLLSVGTALLGGGQPFYKQFGLDDVSVRSGAIGSSGSLLPDRTVAAGVNRDSDADLATQFLVASKRFANGITLSVEQALAGSETVGRA,not soluble
7,MNEREAKMYELEFPAPDVASDGVDGPTLIIAMQGYADAGLAVEASADHLLSALEHRPVAVFNNDELIDYRSRRPAVTIDHNIVVDANELKLSMDVLRDSNGTPFLLLSGPEPDLRWDAFSQAVADLVRRFGVRRTICIYAAPMTVPHTRPLIVSAHGNSLDLIKHHFSIDSKVTIPGSASLHIERLLNKNNIDVAGYTAHVPHYLSASAYPLATLKLLEAITTSTNLDFPLKTLEADAQKTALQVEEQVAGSQEIESVVKILEQQYDEELEKYRERNPKALEIAEDDLPDADELGEEFERFLANIDEENGSDD,not soluble
8,MGSDKIHHHHHHMNYPTTRLNWPRAWRVIPSRFPAVGLFERVASPDDFDALYALEAMTNDRLRDEVGDISLVPPEERLFGPGSTCIMAAFTHLNPQGSRFSDGSYGVFYCARKRDTAIAETRYHSARFMQATREPPMRLQMRLYSVQARGEAADLRVASKSDPRIVAPDDYSYPQAIGRSLRAAGALGIVYPSVRHSGGGCLAALRTGIVKNCLHAAYLEYNWNGEGIDAVFEVNRVL,not soluble
9,GYCGPCPNNWICHRNNCYQFFNEEKTWNQSQASCLSQNSSLLKIYSKEEQDFLKLVKSYHWMGLVQIPANGSWQWEDGSSLSYNQLTLVEIPKGSCAVYGSSFKAYTEDCANLNTYICMKRAV,soluble
10,MDWVRLLSRLVQAESLPGEEGEAAGLLLEALKGMGLEATLDEAGNIEALLGEKGPEVVLTGHMDVVPVGDPARWPYPQGAVAEGSLWGRGAVDMKGSLVAMLLALETLARGALKGRVRFLAVVQEEVGGLGSRFAAERLSPLAFVLGEPSSGRLMRGHRGRRKVWADFEGRETHAALAGPENPLFDLGAYLLALQDLPLPPGVKLTPTRVDTHPGARNQTPGVVRLYLDVRYEPEADLDGLLAALRTLGPASVYLPEEERASGEVRMTLPALWPPYRLPEDHPLLQAALQALGQEEAGLWPFTTDAPYLGAKAPVLGLGPGDPALAHTPMEHVPLRAVEEAAQAYVRLVEALWNAD,soluble
11,DEDDSADNIHAVSSERWRIHAATEIEDINTFFGTEYSSEEADTIGGLVIQELGHLPVRGEKVLIGGLQFTVARADNRRLHTLMATRVK,soluble
12,MYCHAKLKNISQHTVISAHLFLPDYSPMNRDSFYPAIACFPLLLMLAGCAPMHETRQALSQQTPAAQVDTALPTALKMVGQTANGGWSITIINSLPLEHHHHHH,not soluble
13,RPLKRDKPAARTLKDNWLRTEREERLWQALRVWRMKQAEAEGIPAYMIFGDKTLRDLVEKMPQDLNGLHDIYGLGEAKIDRFGHGILEVCRNAAGFSRDAVIRPQTEREQQLRQKLEAWRYEQARAENCALHAVLSDESLADMLADTPETETDLEGVYGLGSVRAAKYGRDILAVCRPFSDGIDETAKRKRRLMRALIQWCGETAKHEQSEPYRILSKAALRAIAAKQPEGLAELAAVYGVGEEKAARYGAAVLAVLERNAV,not soluble
14,MGSDKIHHHHHHMKAVRVHILGSGGREHAIGWAFAKQGYEVHFYPGNAGTKRDGTNHPYEGEKTLKAIPEEDIVIPGSEEFLVEGVSNWRSNVFGPVKEVARLEGSKVYAKRFMKKYGIRTARFEVAETPEELREKIKKFSPPYVIKADGLARGKGVLILDSKEETIEKGSKLIIGELIKGVKGPVVIDEFLAGNELSAMAVVNGRNFVILPFVRDYKRLMDGDRGPNTGGMGSWGPVEIPSDTIKKIEELFDKTLWGVEKEGYAYRGFLYLGLMLHDGDPYILEYNVRLGDPETEVIVTLNPEGFVNAVLEGYRGGKMEPVEPRGFAVDVVLAARGYPDAPEKGKEITLPEEGLIFFAGVAEKDGKLVTNGGRVLHCMGTGETKEEARRKAYELAEKVHFEGKTYRRDIAL,soluble
15,MTRLAEILDQMSAVLNDLKTVMDQEQQHLSMGQINGSQLQWITEQKSSLLATLDYLEQLRRKEPNTANSVDISQRWQEITVKTQQLRQMNQHNGWLLEGQIERNQQALEMLKPHQEPTLYGANGQTSTTHRGGKKISILEHHHHHH,soluble
16,MSLVINAPFKVIASKVTAEVLKSVNSKLGSYSTNYATSSEARATNVAVATRSIDGKVVMPGETFSFNEVVGERTRARGYKEAGVIVNQKLESGFGGGVCQVSSTLYNALLRSNIKMTERVHHTFPSSYVPTGLDATVDWGNIDLKFKNTFKYPIYIQGYTGGREVGFNIYSNSELARTRCEITSEVYKKIEPRTEYINDSNLPAGAMEVVKSGHTGYRVKSYRSIYKDGKFVAKELIANDYYVPVNGVVKRGTREGHHHHHH,soluble
17,MVDVIVIGAGIGGLTAAALLQERGFSTVVFEKNRFPGGSCSSFEKGGYTFDAGASVFYGFCDDDAMGTLNLHSRIFRKLGIAVETIPDPVQIHYHMPGGFDVPAWFDRDRFLESLCRRFPHERTGIRKFYDELESVYEILNSLPAGSLEDVIHLGVVGARHPLKVMALGVKTLFSMGNVARRYISDKELLRFIDLEAYSWAVQDAVSTPLVNAGICLADRHHGGINYPVGGSGTIPAALVKGFEKFGGSIRFGSEVSKVIVKNGSAVGVRLSDGTEVSAKAVVSNATVWDTFSKLVDDPRLRIPDDRFIKAPSWFQIWLGVDGSIVPPGFHMHHIIVDDWSKYDELGGTIYFSAPSVLDPSLAPPGKHALHLFVTAETWQWEQYEYRSQEYKAAKEAFAKSLIARAERLLPGIQDATELMVTATPQSHARYLNRRDGSYGPLLKPGQNILLKPQNRTPIKNLFAAGDSTFPGQGVIAVTYSGVSCASYIARQLGKALDYLLEHHHHHH,not soluble
18,MGHHHHHHSHMIKYYNRKTKQYEIEKVAGENYLNWTYSSPIGMSFLEALIKKKAFSSIYGSFCDSKISKGKVKKFIDSFDIDILESEKKPEAFKSFNDFFTRKLTKEARPFSTNKEILISPGDGRLLVYENIDLDNLVEIKGMGYSLKELIKDEKISSKYKNGICMILRLCPTDYHRFHFVDSGVCSATSKIKGSYYSVNPIALNKVKRLFCENKREWSILKSDNFKDILYIEVGATCVGSIIQTYKENTKVNKGDEKGYFKFGGSTVVLFFEKDSVKIDEDILEQTRLGYETKVFMGESIGKK,soluble
19,MTKVTHLPADDRSCGWYHLSPPRRPKPAHYGRSAARWVVVGAGFTGLAAARQLALHFPDEEIVLVEAQEVGFGTAGRNAGFAIDLPHDIGADDYIGDIATARIGLKLNLAGQSLLREQVQRHAIDCQMKACGKYQAAVEARGVAVLDAYRRGLDRLGQAYEVIEADDLPGNIGTAFYRKALFTPGTLLVQPSALVKGLADSLPGNVSLYEHTPITAVEYGDRTLLSHPHGSILADRLVLANNAFGMSFGFLQGRMLPIFTYASLTRPLDAEEQARLGGRPYWGLIPANPYGTTVRRTPDNRLLIRNSFSFNPDGRSAGKYLERFAVRHRASFRQRFPMLPEVGFDYTWGGSLALSRNHMGHFGELAPNVYGALCCNGLGVTRGTVTGKLLADWLAGERNELIDFLLRAPGPSGNPPEPLLSLGVNLNLRWGQYRAGRESLEHHHHHH,not soluble
20,ALQAAADIDTVVFDLNGTLTQGKMVVKSLHITDKKYLRPIALLESQSDHPVAKIIKSYMEQQDTASTEPLEITSIDKSHHSGMKGIINGEVFIIGNKDMLAANGITSIDKPYDNPEKGSVYIVRGTTVIGQIALIDPLREDAIATVKQLKRLGKSVHICTGADQATAEKYAALLGIPKDNICANTVGAVTKKGEVSKTSYIQQLKQKGFKVAMVGDAANDATAIAYSDIGIAVKSSIGDSITEQHAGIVVQQGLLFPIATAFDVAQKTKQNIFQNLFVSLSYNSIIT,not soluble
21,MVQLDGGQFEMGTKATDGKDGESPVMQVKVLPFAIDKYPVTNRDFREFVRAKKYKTEAEAFGWSFVFEDFVSEELKKKVTQKLESAPWWLPVERAFWRQVSNLSVPLLLSGGSKGLFAAE,not soluble
22,AKGEVWEAKPVGAAALPQWIRGRLDKIGLGIEADALALFAERVEGNLLAARQEIDKLGLLYPKGHTVNIDEAQTAVANVARFDAFQLAGAWMKGDVLRVCRLLDGLREEGEEPVLLLWAVAEDVRTLIRLAAALKQGQSIQSVRNSLRLWGDKQTLAPLAVKRISVVRLLDALKTCAQIDRIIKGAEDGDAWTVFKRLVVSLAE,soluble
